These results are taken from article PMC6328183 (2019).

In this assay the target is FuBc protein (recombinant protein of the fusion loop and Bc loop of domain II of dengue envelope protein with … (DENV-2 (of the template structure PDB …, UniProt P12823))). Briefly: SPR. For orientation: Surface plasmon resonance follows binding to a sensor surface in real time, without labels.

B1: 3IXY scFv antibody (VH and VL of the anti-fusion loop dengue E53 Fab, PDB 3IXY, joined by a (G4S)3 linker) (scFv, V domains shown)
VH: EVKLVESGGGLVLPGGSLRLSCATSGFTFTDYYMTWVRQPPGKALEWLGFIGNKANDYTTEYSASVKGRFTISRDDSQSILYLQMSTLRAEDRATYYCATVYGNYPYFDVWGAGTTVAVSS
VL: QIVLTQSPAIMSASPGEKVTMTCSASSSVSYMHWYQQKSGTSPKIWIYESSKLASGVPVRFSGSGSGTSYSLTISSMEAEDVATYYCQQWSSHPHPLTFGAGTKLELK
Regarding B1, the koff was found to be 0.0077 s⁻¹.

As usually defined, the koff is a measure of how fast the partners let go of each other.
